B1: mRNA-splicing (parent)
chain: AGUUGCUGCUGGGAGCUCCAGCACAGUGAAAUGGACAGAAGGGCAGAGCAA

Variants of: B1
Test: exon inclusion enrichment index; higher = more inclusion; WT1 exon 5 minigene, HEK293
For AGUUUCUUUUGGGAGCUCCAGCACAGUGAAAUACACAGAAGGGCAGAGCAA [G5U G8U C9U G33A G34C], the “exon inclusion enrichment index” value was 0.0112.
With AGUUUCUUUUGGGAGCUCCAGCACAGUGAAAUAUACAGAAGGGCAGAGCAA [G5U G8U C9U G33A G34U] the “exon inclusion enrichment index” value was 0.0046.
For AGUUUCUUUUGGGAGCUCCAGCACAGUGAAAUCGACAGAAGGGCAGAGCAA [G5U G8U C9U G33C], the “exon inclusion enrichment index” value was 0.254.
With AGUUUCUUUUGGGAGCUCCAGCACAGUGAAAUCAACAGAAGGGCAGAGCAA [G5U G8U C9U G33C G34A] the “exon inclusion enrichment index” value was 0.0575.
With AGUUUCUUUUGGGAGCUCCAGCACAGUGAAAUCCACAGAAGGGCAGAGCAA [G5U G8U C9U G33C G34C] the “exon inclusion enrichment index” value was 0.0648.
In the case of AGUUUCUUUUGGGAGCUCCAGCACAGUGAAAUCUACAGAAGGGCAGAGCAA [G5U G8U C9U G33C G34U], the “exon inclusion enrichment index” value is reported as 0.0844.
In the case of AGUUUCUUUUGGGAGCUCCAGCACAGUGAAAUUGACAGAAGGGCAGAGCAA [G5U G8U C9U G33U], the “exon inclusion enrichment index” value is reported as 0.0674.
For AGUUUCUUUUGGGAGCUCCAGCACAGUGAAAUUAACAGAAGGGCAGAGCAA [G5U G8U C9U G33U G34A], the “exon inclusion enrichment index” value was 0.00858.
With AGUUUCUUUUGGGAGCUCCAGCACAGUGAAAUUCACAGAAGGGCAGAGCAA [G5U G8U C9U G33U G34C] the “exon inclusion enrichment index” value was 0.0164.
With AGUUUCUUUUGGGAGCUCCAGCACAGUGAAAUUUACAGAAGGGCAGAGCAA [G5U G8U C9U G33U G34U] the “exon inclusion enrichment index” value was 0.00702.
With AGUUUCUUUUGGGAGCUCCAGCACAGUGAAAUGAACAGAAGGGCAGAGCAA [G5U G8U C9U G34A] the “exon inclusion enrichment index” value was 0.0562.
With AGUUUCUUUUGGGAGCUCCAGCACAGUGAAAUGACCAGAAGGGCAGAGCAA [G5U G8U C9U G34A A35C] the “exon inclusion enrichment index” value was 0.0912.
For AGUUUCUUUUGGGAGCUCCAGCACAGUGAAAUGAGCAGAAGGGCAGAGCAA [G5U G8U C9U G34A A35G], the “exon inclusion enrichment index” value was 0.0238.
With AGUUUCUUUUGGGAGCUCCAGCACAGUGAAAUGAUCAGAAGGGCAGAGCAA [G5U G8U C9U G34A A35U] the “exon inclusion enrichment index” value was 0.0163.
With AGUUUCUUUUGGGAGCUCCAGCACAGUGAAAUGCACAGAAGGGCAGAGCAA [G5U G8U C9U G34C] the “exon inclusion enrichment index” value was 0.0201.
In the case of AGUUUCUUUUGGGAGCUCCAGCACAGUGAAAUGCCCAGAAGGGCAGAGCAA [G5U G8U C9U G34C A35C], the “exon inclusion enrichment index” value is reported as 0.0104.
With AGUUUCUUUUGGGAGCUCCAGCACAGUGAAAUGCGCAGAAGGGCAGAGCAA [G5U G8U C9U G34C A35G] the “exon inclusion enrichment index” value was 0.0652.
In the case of AGUUUCUUUUGGGAGCUCCAGCACAGUGAAAUGCUCAGAAGGGCAGAGCAA [G5U G8U C9U G34C A35U], the “exon inclusion enrichment index” value is reported as 0.00745.
In the case of AGUUUCUUUUGGGAGCUCCAGCACAGUGAAAUGUACAGAAGGGCAGAGCAA [G5U G8U C9U G34U], the “exon inclusion enrichment index” value is reported as 0.0349.
In the case of AGUUUCUUUUGGGAGCUCCAGCACAGUGAAAUGUCCAGAAGGGCAGAGCAA [G5U G8U C9U G34U A35C], the “exon inclusion enrichment index” value is reported as 0.0387.
For AGUUUCUUUUGGGAGCUCCAGCACAGUGAAAUGUGCAGAAGGGCAGAGCAA [G5U G8U C9U G34U A35G], the “exon inclusion enrichment index” value was 0.0289.
In the case of AGUUUCUUUUGGGAGCUCCAGCACAGUGAAAUGUUCAGAAGGGCAGAGCAA [G5U G8U C9U G34U A35U], the “exon inclusion enrichment index” value is reported as 0.0186.
For AGUUUCUUUUGGGAGCUCCAGCACAGUGAAAUGGACAAAAGGGCAGAGCAA [G5U G8U C9U G38A], the “exon inclusion enrichment index” value was 0.0418.
For AGUUUCUUUUGGGAGCUCCAGCACAGUGAAAUGGACAACAGGGCAGAGCAA [G5U G8U C9U G38A A39C], the “exon inclusion enrichment index” value was 0.0724.
In the case of AGUUUCUUUUGGGAGCUCCAGCACAGUGAAAUGGACAAGAGGGCAGAGCAA [G5U G8U C9U G38A A39G], the “exon inclusion enrichment index” value is reported as 0.151.
In the case of AGUUUCUUUUGGGAGCUCCAGCACAGUGAAAUGGACAAUAGGGCAGAGCAA [G5U G8U C9U G38A A39U], the “exon inclusion enrichment index” value is reported as 0.00274.
In the case of AGUUUCUUUUGGGAGCUCCAGCACAGUGAAAUGGACACAAGGGCAGAGCAA [G5U G8U C9U G38C], the “exon inclusion enrichment index” value is reported as 0.0741.
With AGUUUCUUUUGGGAGCUCCAGCACAGUGAAAUGGACACCAGGGCAGAGCAA [G5U G8U C9U G38C A39C] the “exon inclusion enrichment index” value was 0.152.
For AGUUUCUUUUGGGAGCUCCAGCACAGUGAAAUGGACACGAGGGCAGAGCAA [G5U G8U C9U G38C A39G], the “exon inclusion enrichment index” value was 0.136.
With AGUUUCUUUUGGGAGCUCCAGCACAGUGAAAUGGACACUAGGGCAGAGCAA [G5U G8U C9U G38C A39U] the “exon inclusion enrichment index” value was 0.00329.
With AGUUUCUUUUGGGAGCUCCAGCACAGUGAAAUGGACAUAAGGGCAGAGCAA [G5U G8U C9U G38U] the “exon inclusion enrichment index” value was 0.0205.
With AGUUUCUUUUGGGAGCUCCAGCACAGUGAAAUGGACAUCAGGGCAGAGCAA [G5U G8U C9U G38U A39C] the “exon inclusion enrichment index” value was 0.088.
In the case of AGUUUCUUUUGGGAGCUCCAGCACAGUGAAAUGGACAUGAGGGCAGAGCAA [G5U G8U C9U G38U A39G], the “exon inclusion enrichment index” value is reported as 0.0405.
In the case of AGUUUCUUUUGGGAGCUCCAGCACAGUGAAAUGGACAUUAGGGCAGAGCAA [G5U G8U C9U G38U A39U], the “exon inclusion enrichment index” value is reported as 0.00101.
In the case of AGUUUCUUUUGGGAGCUCCAGCACAGUGAAAUGGACAGAAAGGCAGAGCAA [G5U G8U C9U G41A], the “exon inclusion enrichment index” value is reported as 0.0762.
For AGUUUCUUUUGGGAGCUCCAGCACAGUGAAAUGGACAGAAAAGCAGAGCAA [G5U G8U C9U G41A G42A], the “exon inclusion enrichment index” value was 0.107.
In the case of AGUUUCUUUUGGGAGCUCCAGCACAGUGAAAUGGACAGAAACGCAGAGCAA [G5U G8U C9U G41A G42C], the “exon inclusion enrichment index” value is reported as 0.348.
With AGUUUCUUUUGGGAGCUCCAGCACAGUGAAAUGGACAGAAAUGCAGAGCAA [G5U G8U C9U G41A G42U] the “exon inclusion enrichment index” value was 0.115.
In the case of AGUUUCUUUUGGGAGCUCCAGCACAGUGAAAUGGACAGAACGGCAGAGCAA [G5U G8U C9U G41C], the “exon inclusion enrichment index” value is reported as 0.706.
For AGUUUCUUUUGGGAGCUCCAGCACAGUGAAAUGGACAGAACAGCAGAGCAA [G5U G8U C9U G41C G42A], the “exon inclusion enrichment index” value was 0.229.
In the case of AGUUUCUUUUGGGAGCUCCAGCACAGUGAAAUGGACAGAACCGCAGAGCAA [G5U G8U C9U G41C G42C], the “exon inclusion enrichment index” value is reported as 0.753.
In the case of AGUUUCUUUUGGGAGCUCCAGCACAGUGAAAUGGACAGAACUGCAGAGCAA [G5U G8U C9U G41C G42U], the “exon inclusion enrichment index” value is reported as 0.643.
In the case of AGUUUCUUUUGGGAGCUCCAGCACAGUGAAAUGGACAGAAUGGCAGAGCAA [G5U G8U C9U G41U], the “exon inclusion enrichment index” value is reported as 0.17.
With AGUUUCUUUUGGGAGCUCCAGCACAGUGAAAUGGACAGAAUAGCAGAGCAA [G5U G8U C9U G41U G42A] the “exon inclusion enrichment index” value was 0.0453.
With AGUUUCUUUUGGGAGCUCCAGCACAGUGAAAUGGACAGAAUCGCAGAGCAA [G5U G8U C9U G41U G42C] the “exon inclusion enrichment index” value was 0.47.
In the case of AGUUUCUUUUGGGAGCUCCAGCACAGUGAAAUGGACAGAAUUGCAGAGCAA [G5U G8U C9U G41U G42U], the “exon inclusion enrichment index” value is reported as 0.11.
In the case of AGUUUCUUUUGGGAGCUCCAGCACAGUGAAAUGGACAGAAGAGCAGAGCAA [G5U G8U C9U G42A], the “exon inclusion enrichment index” value is reported as 0.667.
In the case of AGUUUCUUUUGGGAGCUCCAGCACAGUGAAAUGGACAGAAGAACAGAGCAA [G5U G8U C9U G42A G43A], the “exon inclusion enrichment index” value is reported as 1.46.
With AGUUUCUUUUGGGAGCUCCAGCACAGUGAAAUGGACAGAAGACCAGAGCAA [G5U G8U C9U G42A G43C] the “exon inclusion enrichment index” value was 1.72.
With AGUUUCUUUUGGGAGCUCCAGCACAGUGAAAUGGACAGAAGAUCAGAGCAA [G5U G8U C9U G42A G43U] the “exon inclusion enrichment index” value was 1.46.
With AGUUUCUUUUGGGAGCUCCAGCACAGUGAAAUGGACAGAAGCGCAGAGCAA [G5U G8U C9U G42C] the “exon inclusion enrichment index” value was 0.786.
